Results from the nanobody polyreactivity screen of Harvey et al. (2022).

Assay: yeast display, Sf9 membrane polyspecificity reagent, FACS + sequencing; frameworks hold sequencing errors
In short: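 Genes from sorted yeast were amplified by colony PCR, read by MiSeq 2 × 250 sequencing and filtered on CDR length. These cells carried a synthetic nanobody library in Saccharomyces cerevisiae BJ5465 and were sorted by FACS into low and high (top ~1%) gates on anti-HA and streptavidin fluorescence. Polyreactivity is labelled according to the gate of origin.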

Sequence	polyreactivity (PSR sort gate)
QVQLVESGGGLVQAGGSLRLSCAASGFIFPYYAMGWYRQAPGQERELVAAITGGGSRTYYADSVKGRFTISRDNAKNTVYLQMNSLKPEDTAVYYCAKGLSTGRAYRGYDYWGQGTQVTVSS	high polyreactivity
QVQLVESGGGLVQAGGSLRLSCAASGLTFDHYTMGWYRQATGLERELVAAITKNGGSTYYADSVKGRFTISRDNAKNTVYLQMISLKPEDTAVYYCNVGPRRVDRSRAASSDYDYWGQGTQVTVSS	high polyreactivity
QVQLVESGGGLVQAGGSLRLSCAASGGTFVYYTMGWYRQAPGKERELVAAISGRGGRTYYADSVKGRFTISRDNAKNTVYLQMNSLKPEDTAVYYCTATQIGPYYLPFDSWGQGTQVTVSS	high polyreactivity
QVQLVESGGGLVQAGGSLRLSGAASGRTFKHYVMGWYRQAPGKARELVAAYRSGGRTNYADSVKGRFTISRDNAKNTVYLQMNRVKPADTAVYYCAARYFSQYQGAGYDSWGQGTQVTVSS	high polyreactivity
QVQLVESGGGLVQAGGSLRLSCAASGRTFRGYAMGWYRQAPGKERELVAAITSGGSTNYADSVKGRFTISRDNAKNTVYLQMNSLKPEDTAVYYCNRDTSKYGLWRYIYDYWGQGTQVTVSS	low polyreactivity
QVHLVESGGGLVQAGGSLRLSCAASGRTFVYNAMGWYRQAPGKERELVAAISQSGGSTYYADSVKGRFTISRDNAKNTVYLQMNSLKPEDTAVYYCAARYKTGSYVRYNYWGQGSQVTVSS	high polyreactivity
QVQLEESAGGLVQAGGSLRLSCAASGSSFTSYAMGWYRQAPGKERELVAAITSGGSTTYADSVKGRFTISRDNEKNTVYLQMNSLKPEDTAVYYCNAKWYGYLTRDAYRYRYTYDYWGQGTQVTVSS	low polyreactivity
QVQLVESGGGLVQAGGSLRLSCAASGRTFGIYAMGWYRQAPGKERELVADITIGGSTYYADSVKGRFTISRDNAKNTVYLQMNSLKPEDTAVYYCNADVVVQYYFTYYRVFTYDYWGQGTQVTVSS	low polyreactivity
QVQLVESGGGLVQAGGSLRLSCAASGLIFSPYAMGWYRQAPGKVREFVAAITSRGGTYYADSVKGRFTISRDNAKNTVYLQMNSLKPEDTAVYYCAARNNRYPLYNYWGQGTQVTVSS	low polyreactivity
QVQLVESGGGLVQAGVSLRLSCAASGRTFGQYVMGWYRQAPGKERELVAAIRSGGSTYYADSVKGLFTISRDNAKNTVYIQLNSLKPEDTAVYYCNADSGPIDGRGGYWGQGTQVTVSS	low polyreactivity
QVQLVESGGGLVQAGGSLRLSCAASGSTLYTYAMRWYRQAPGKERELVAAIRLSGGRTYYADSVKGRFTISRDNAKNTVYLQMYSLKPEDTAVYDFAVDWSYSRYDYWGQGTQVTVSS	high polyreactivity
QDQLVESGGGLVQAGGSLRLSCAASGSIFTRYTMGWYRQAPGKERELVATISSRGDGTYYADSVKGRFTISRDNAKNTVYLQMNSLKPEDTAVYYCAARYRRVHSGYGYWGQGTQVTVSS	high polyreactivity
QVQLVESGGGLVQAGGSLRLSCAASGFTFGPNTMGWYRQAPGKERELVAAISARGGRTYYADSVKGRFTISRDTAKNTVYLQMNSLKPEDTAVYYCAAPGYVRTGVTYGGYYWGQGTQVTVSS	high polyreactivity
QDQLVESGGGLVQAGGSLRLSCAASGITFYRNAMGWYRQAPGKERELVAAITSGTRTNYADSVKGRFTISRDNAKNTVYLQMNSLKPEDTAVYYCAKGGRSSSPLYRFEYWGQGTQVTVSS	high polyreactivity
QVHLVESGGGLVQAGGSLRLSCAASGRTFGPYTMGWYRQAPGTEREVVAAINSSGSRTYYADSVKGRFTISRDNAKNTVYLQMNSLKPEDTAVYYCADEAKWYYSWSYPYEGDYWGQGTQVTVSS	low polyreactivity
QVQLVESGGGLVQAGGSLRLSCAASGFTFFKYAMGWYRQAPGKERELVAAISSSGGSTYYADSVKGRFTISRDNAKNTVYLQMNSLKPEDSAVYYCNRPAAVYFKLVTAYDYWGQGTQVTVSS	high polyreactivity

Sequence	polyreactivity (PSR sort gate)
QVQLVESGGGLVQAGGSLRLSCAASGSIFYSNVMGWYRQAPGKERELVARITDAGSTNYADSVKGRFTISRDNAKNTVYLQMNSLKPEDTAVYYCNARLVIYTYDYWGQGTQVTVSS	low polyreactivity
QVQLVESGGGLVQAGGSLRLSCAASGSTFPFNAMGWYRQAPGKEREFVAVINSGGDSTYYADSVKGRFTISRDNAKNTVYLQMNSLKPEDTAVYYCNAEDTRNDYDYWGQGTQVTVSS	low polyreactivity
HVQLVESGGGLVQAGGSLRLSCAASVITFVPYAMGWYRQATGKERELVAAISWSGGSTYYADSVKGRFTISRDNAKNTVYLQMNSLKPEDTAVYYCAAQHDVRYDYWGQGTQVTVSS	low polyreactivity
QVQLVESGGGLVQAGGSLHLSCAASGFTFGRYAMGWFRQAPGKERELVAAISRRGGSTYYADSVKGRFTISRDNANNTVYLQMNSLKPEDTAVYYCNVDKYRIVGFHSPYDYWVQGTQVTVSS	high polyreactivity
QVQLVESGGGLVQAGGSLRLSCAASGITIVRNAMGWYRQAPGKERELVAAISSGGSTYYADSVKGRFTISRDNAKISVYLQMNSLKPEDTAVYYCAAVPEYYEYSPYDYWGQGTQVTVSS	low polyreactivity
QVQLVESGGGLVQSGGSLRLSCCACGRIFYSYSMGRYRQAPGKDRELVAANTCRGGSTYYADSVKGRFTISRDNAKNPVYLQMIRLKPEDTAVSYCATSSHTPYYSYIVERIHYDYWGQGTQVTVSS	high polyreactivity
QVQLVESGGGLVQAGGSLRLSCAASGFIFADYTMGWSRQAPGQERELVAVITSGGSTHYADSVKGRFTISRDNAKNTVYLQMNSLKPEDTAVYYCAARSYRPTRGDYWGQGTKVTVSS	high polyreactivity
QVQLVESGGGLVQAGGSLRLSCAASGTFYYAMGWYRQAPGKEREFVAAISWRGGTTYYADSVKGRFTMSRDNAKNTVYLQMNSLKPEDTAVYYCATAPYVTSRRYGPYEYWGQGTQVTVSS	low polyreactivity
QVQLVESGGGLVQAGGSLRLSCAASGSTFYKYAMGWYRQAPGKERELVASISRSGGSTSYADSVKGRFTISRDNAKNTVYLQMNSLKPEDTEVYYCAATWRQHPGSMGYWGQGTQVTVSS	high polyreactivity
QVQLVESGGGLVQAGGSLRLSCAASGFTFDQYGMGWYRQAPGKERVLVAGISWGGGTTYYADSVKGRFTISRDNAKNTVYLQMNSLKPEDTAVYYCAAVRPGYPYYGSDYWGQGTQVTVSS	low polyreactivity
QVQLVESGGALVQAGGSLRLSCAASGIIFWLYDMGWSRQAPGKERELVAVMTWSGDSTYADSVKGRFTISRDNAKNTVYLQMNSLKPEDNAVYYCAAREYYRKPYDHWGQGTQVTVSS	high polyreactivity
QVQLVESGGGLVQAGGSLRISCAASGSICYYYGMGWYRQAPGKERELVAGISSRGGRTYYADSVKGRFTISRDNAKNTVYLQMNSLKPEDTAVYYGAADRYYYAYRYDPSGYWGQGTQVTVSS	low polyreactivity
QVQLVDSGGGLVQAGGTLRLSCAASGRTIRYNAMAWYRQAPGKERELVAAITGSGGSTYYADSVKGRFTISRDNAKNTVYLQMNSLKPEDTAVYYCARDGYLVYYYDWSYPYDSWGQGTQVTVSS	low polyreactivity
QVQLVESGGGLVQAGGSLRLSCAASGLTFEYYTMGWYRQAPGKERELVAAITSSGGSTYYADSVKGRFTISRDNAKNTVYLQMNSLKPEDTAVYYCAADYYTWYGILYDYWGQGTQVTVSS	low polyreactivity
QVQLVESGGALVQAGGSLRLSCAASGSTFFINAMGWYRQAPGKERELVAAITSTDSTTYADSVKGRFTISRDNAKNTVYLQMNSLKPEDTAVYYCAKESIGQDPVSGAWARHEYDYWGQGTQVTVSS	low polyreactivity
